From patent US20030148956A1 (PROCTER AND GAMBLE, published 2003) come the findings set out here.

The target of assay [1] is T1, corticotropin releasing factor 2 receptor.
T1 sequence (Q13324 whole entry, species assumed, looked up): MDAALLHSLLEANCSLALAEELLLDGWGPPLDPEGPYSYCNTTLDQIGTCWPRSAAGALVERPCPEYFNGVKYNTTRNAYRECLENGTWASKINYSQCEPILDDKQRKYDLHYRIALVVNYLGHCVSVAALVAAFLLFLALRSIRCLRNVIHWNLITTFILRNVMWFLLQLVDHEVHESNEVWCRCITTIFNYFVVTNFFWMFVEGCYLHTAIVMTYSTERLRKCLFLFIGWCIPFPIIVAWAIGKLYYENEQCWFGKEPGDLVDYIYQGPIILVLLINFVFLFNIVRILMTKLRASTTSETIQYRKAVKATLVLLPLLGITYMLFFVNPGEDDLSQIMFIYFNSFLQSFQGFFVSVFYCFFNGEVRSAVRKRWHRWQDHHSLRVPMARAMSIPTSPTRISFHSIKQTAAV
In words: cell-based or functional assay.

For assay [2], the target named is corticotropin releasing factor 1 receptor. Kind of assay: cell-based or functional assay.

Ends that are not written are not given here. Bounds are passed on as bounds.

Turning to IVLSLDVPIGLLQILLEQARARAAREQATTNARILARV (ends and bridges not checked) [human urocortin II fragment], in assay [1], the “CRF2R EC50” value stood at 3.64 nM and the “CRF2R Emax %” value turned out to be 98%. In assay [2], the “CRF1R EC50” value was > 100 nM and the “CRF1R Emax %” value was 9%.
